# ± gives the uncertainty stated by the source.
# Assay: abundance fitness (aPCA) (normalised: wild type 0, dead -1); higher = more abundant; growth selection in yeast, the domain comes from the species named
# Conditions: Bacillus caldolyticus
row,Substance,abundance fitness
1,"Cold shock protein CspB E21R, P41016",0.011 ± 0.036
2,"Cold shock protein CspB G22P, P41016",0.032 ± 0.047
3,"Cold shock protein CspB I18R, P41016",-0.908 ± 0.044
4,"Cold shock protein CspB S24E, P41016",0.012 ± 0.053
5,"Cold shock protein CspB V20G, P41016",0.004 ± 0.039

# Same assay, conditions: Homo sapiens
row,Substance,abundance fitness
1,"Gamma-crystallin C A162C, P07315",-0.092 ± 0.14
2,"Gamma-crystallin C L167W, P07315",-0.575 ± 0.23
3,"Gamma-crystallin C R153W, P07315",-0.775 ± 0.22
4,"Scaffold attachment factor B1 A41C, Q15424",-0.317 ± 0.08
5,"Scaffold attachment factor B1 A41D, Q15424",-0.204 ± 0.064
6,"Scaffold attachment factor B1 A41E, Q15424",-0.049 ± 0.062
7,"Scaffold attachment factor B1 A41F, Q15424",-0.145 ± 0.053
8,"Scaffold attachment factor B1 A41G, Q15424",-0.095 ± 0.063
9,"Scaffold attachment factor B1 A41H, Q15424",-0.449 ± 0.11
10,"Scaffold attachment factor B1 A41I, Q15424",-0.114 ± 0.073
11,"Scaffold attachment factor B1 A41K, Q15424",-0.205 ± 0.068
12,"Scaffold attachment factor B1 A41L, Q15424",-0.12 ± 0.055
13,"Scaffold attachment factor B1 A41M, Q15424",-0.142 ± 0.061
14,"Scaffold attachment factor B1 A41N, Q15424",-0.311 ± 0.1
15,"Scaffold attachment factor B1 A41Q, Q15424",-0.257 ± 0.072
16,"Scaffold attachment factor B1 A41R, Q15424",-0.12 ± 0.051
17,"Scaffold attachment factor B1 A41S, Q15424",-0.128 ± 0.053
18,"Scaffold attachment factor B1 A41T, Q15424",-0.164 ± 0.059
19,"Scaffold attachment factor B1 A41V, Q15424",-0.105 ± 0.053
20,"Scaffold attachment factor B1 A41W, Q15424",-0.122 ± 0.049
21,"Scaffold attachment factor B1 A41Y, Q15424",-0.176 ± 0.069
22,"Scaffold attachment factor B1 A64C, Q15424",-0.016 ± 0.077

row,Substance,abundance fitness
1,"Scaffold attachment factor B1 A64D, Q15424",-0.601 ± 0.11
2,"Scaffold attachment factor B1 A64F, Q15424",-0.317 ± 0.089
3,"Scaffold attachment factor B1 A64G, Q15424",-0.527 ± 0.053
4,"Scaffold attachment factor B1 A64H, Q15424",-0.132 ± 0.082
5,"Scaffold attachment factor B1 A64I, Q15424",-0.109 ± 0.073
6,"Scaffold attachment factor B1 A64K, Q15424",-0.228 ± 0.08
7,"Scaffold attachment factor B1 A64L, Q15424",-0.146 ± 0.052
8,"Scaffold attachment factor B1 A64M, Q15424",-0.416 ± 0.1
9,"Scaffold attachment factor B1 A64N, Q15424",-0.551 ± 0.15
10,"Scaffold attachment factor B1 A64P, Q15424",-0.603 ± 0.087
11,"Scaffold attachment factor B1 A64Q, Q15424",-0.162 ± 0.086
12,"Scaffold attachment factor B1 A64R, Q15424",-0.236 ± 0.048
13,"Scaffold attachment factor B1 A64T, Q15424",-0.125 ± 0.078
14,"Scaffold attachment factor B1 A64W, Q15424",-0.249 ± 0.062
15,"Scaffold attachment factor B1 A64Y, Q15424",-0.519 ± 0.12
16,"Scaffold attachment factor B1 D33A, Q15424",-0.303 ± 0.049
17,"Scaffold attachment factor B1 D33C, Q15424",-0.354 ± 0.061
18,"Scaffold attachment factor B1 D33E, Q15424",-0.209 ± 0.078
19,"Scaffold attachment factor B1 D33F, Q15424",-0.715 ± 0.063
20,"Scaffold attachment factor B1 D33G, Q15424",-0.281 ± 0.053
21,"Scaffold attachment factor B1 D33H, Q15424",-0.262 ± 0.1
22,"Scaffold attachment factor B1 D33I, Q15424",-0.88 ± 0.12

row,Substance,abundance fitness
1,"Scaffold attachment factor B1 D33K, Q15424",-0.451 ± 0.069
2,"Scaffold attachment factor B1 D33L, Q15424",-0.437 ± 0.06
3,"Scaffold attachment factor B1 D33M, Q15424",-0.235 ± 0.055
4,"Scaffold attachment factor B1 D33N, Q15424",-0.291 ± 0.068
5,"Scaffold attachment factor B1 D33P, Q15424",-0.726 ± 0.069
6,"Scaffold attachment factor B1 D33Q, Q15424",-0.192 ± 0.069
7,"Scaffold attachment factor B1 D33S, Q15424",-0.15 ± 0.054
8,"Scaffold attachment factor B1 D33T, Q15424",-0.308 ± 0.077
9,"Scaffold attachment factor B1 D33V, Q15424",-0.493 ± 0.054
10,"Scaffold attachment factor B1 D33W, Q15424",-0.644 ± 0.062
11,"Scaffold attachment factor B1 D33Y, Q15424",-0.813 ± 0.099
12,"Scaffold attachment factor B1 D38A, Q15424",-0.388 ± 0.056
13,"Scaffold attachment factor B1 D38E, Q15424",-0.095 ± 0.059
14,"Scaffold attachment factor B1 D38F, Q15424",-0.874 ± 0.084
15,"Scaffold attachment factor B1 D38G, Q15424",-0.558 ± 0.051
16,"Scaffold attachment factor B1 D38H, Q15424",-0.428 ± 0.089
17,"Scaffold attachment factor B1 D38I, Q15424",-0.767 ± 0.11
18,"Scaffold attachment factor B1 D38L, Q15424",-0.683 ± 0.055
19,"Scaffold attachment factor B1 D38M, Q15424",-0.536 ± 0.071
20,"Scaffold attachment factor B1 D38N, Q15424",-0.414 ± 0.092
21,"Scaffold attachment factor B1 D38P, Q15424",-0.899 ± 0.057
22,"Scaffold attachment factor B1 D38Q, Q15424",-0.107 ± 0.069

row,Substance,abundance fitness
1,"Scaffold attachment factor B1 D38R, Q15424",-0.618 ± 0.055
2,"Scaffold attachment factor B1 D38S, Q15424",-0.446 ± 0.059
3,"Scaffold attachment factor B1 D38T, Q15424",-0.307 ± 0.072
4,"Scaffold attachment factor B1 D38V, Q15424",-0.629 ± 0.052
5,"Scaffold attachment factor B1 D38W, Q15424",-0.742 ± 0.067
6,"Scaffold attachment factor B1 D38Y, Q15424",-0.913 ± 0.12
7,"Scaffold attachment factor B1 D49A, Q15424",-0.329 ± 0.071
8,"Scaffold attachment factor B1 D49E, Q15424",-0.346 ± 0.077
9,"Scaffold attachment factor B1 D49F, Q15424",-0.762 ± 0.13
10,"Scaffold attachment factor B1 D49G, Q15424",-0.444 ± 0.062
11,"Scaffold attachment factor B1 D49H, Q15424",-0.396 ± 0.097
12,"Scaffold attachment factor B1 D49I, Q15424",-0.514 ± 0.1
13,"Scaffold attachment factor B1 D49K, Q15424",-0.275 ± 0.072
14,"Scaffold attachment factor B1 D49L, Q15424",-0.393 ± 0.061
15,"Scaffold attachment factor B1 D49M, Q15424",-0.464 ± 0.062
16,"Scaffold attachment factor B1 D49N, Q15424",-0.14 ± 0.061
17,"Scaffold attachment factor B1 D49P, Q15424",-0.285 ± 0.068
18,"Scaffold attachment factor B1 D49Q, Q15424",-0.328 ± 0.072
19,"Scaffold attachment factor B1 D49R, Q15424",-0.344 ± 0.052
20,"Scaffold attachment factor B1 D49S, Q15424",-0.219 ± 0.062
21,"Scaffold attachment factor B1 D49T, Q15424",-0.552 ± 0.081
22,"Scaffold attachment factor B1 D49V, Q15424",-0.408 ± 0.057

row,Substance,abundance fitness
1,"Scaffold attachment factor B1 D49Y, Q15424",-0.5 ± 0.057
2,"Scaffold attachment factor B1 D67C, Q15424",-0.244 ± 0.063
3,"Scaffold attachment factor B1 D67E, Q15424",-0.152 ± 0.089
4,"Scaffold attachment factor B1 D67F, Q15424",-0.293 ± 0.082
5,"Scaffold attachment factor B1 D67G, Q15424",-0.131 ± 0.046
6,"Scaffold attachment factor B1 D67H, Q15424",-0.333 ± 0.051
7,"Scaffold attachment factor B1 D67I, Q15424",-0.257 ± 0.079
8,"Scaffold attachment factor B1 D67K, Q15424",-0.258 ± 0.091
9,"Scaffold attachment factor B1 D67L, Q15424",-0.278 ± 0.052
10,"Scaffold attachment factor B1 D67M, Q15424",-0.167 ± 0.1
11,"Scaffold attachment factor B1 D67N, Q15424",-0.125 ± 0.091
12,"Scaffold attachment factor B1 D67Q, Q15424",-0.123 ± 0.077
13,"Scaffold attachment factor B1 D67R, Q15424",-0.168 ± 0.049
14,"Scaffold attachment factor B1 D67T, Q15424",-0.237 ± 0.071
15,"Scaffold attachment factor B1 D67V, Q15424",-0.19 ± 0.063
16,"Scaffold attachment factor B1 D67W, Q15424",-0.474 ± 0.048
17,"Scaffold attachment factor B1 D67Y, Q15424",-0.263 ± 0.13
18,"Scaffold attachment factor B1 D73A, Q15424",-0.196 ± 0.065

# — the Human Domainome abundance scans (Beltran et al. 2025)
